Each block holds one substance with its values, some of them ahead of it.
Tests used:
[1] = molecular target: Avi-tagged follistatin-288, biotinylated (UniProt P19883); experiment: BLI; biotinylated Avi-tagged FST-288 immobilised on streptavidin biosensors; analytes in kinetic buffer (PBS, 0.1% bovine serum albumin, 0.02% Tween-20); 600 s association, 600 s dissociation; 30 °C
[2] = molecular target: myostatin mature domain (Homo sapiens) (UniProt O14793); details: cited from earlier work
[3] = molecular target: activin A mature domain (Homo sapiens) (UniProt P08476); details: cited from earlier work
[4] = molecular target: myostatin mature domain mature domain (Homo sapiens) (UniProt O14793); details: cited from earlier work
myostatin mature domain mature domain (Homo sapiens), sequence (O14793 267-375): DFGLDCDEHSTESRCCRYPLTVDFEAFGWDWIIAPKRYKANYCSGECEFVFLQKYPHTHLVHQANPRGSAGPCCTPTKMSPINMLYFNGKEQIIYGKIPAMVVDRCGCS

myostatin mature domain (Homo sapiens), sequence (O14793 267-375): as above
Avi-tagged follistatin-288, biotinylated, sequence (P19883 30-317): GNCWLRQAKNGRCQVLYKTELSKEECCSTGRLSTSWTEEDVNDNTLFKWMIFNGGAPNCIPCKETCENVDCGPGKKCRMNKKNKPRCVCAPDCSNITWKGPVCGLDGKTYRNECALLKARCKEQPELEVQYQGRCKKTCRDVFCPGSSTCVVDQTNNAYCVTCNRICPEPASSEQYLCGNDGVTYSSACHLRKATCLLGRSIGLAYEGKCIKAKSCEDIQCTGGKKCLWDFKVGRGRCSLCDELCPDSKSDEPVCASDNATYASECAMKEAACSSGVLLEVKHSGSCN
follistatin FST-288, sequence (P19883 30-344): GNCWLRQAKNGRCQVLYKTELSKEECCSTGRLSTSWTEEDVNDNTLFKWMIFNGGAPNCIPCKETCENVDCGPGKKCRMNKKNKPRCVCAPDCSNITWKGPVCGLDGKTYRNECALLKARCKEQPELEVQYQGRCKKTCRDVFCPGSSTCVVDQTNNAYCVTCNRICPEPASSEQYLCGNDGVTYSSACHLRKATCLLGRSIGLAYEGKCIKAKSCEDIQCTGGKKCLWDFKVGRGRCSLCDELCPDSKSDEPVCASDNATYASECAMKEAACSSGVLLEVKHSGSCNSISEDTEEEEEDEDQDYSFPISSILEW
follistatin, sequence (P19883 30-344): as above
activin A mature domain (Homo sapiens), sequence (P08476 311-426): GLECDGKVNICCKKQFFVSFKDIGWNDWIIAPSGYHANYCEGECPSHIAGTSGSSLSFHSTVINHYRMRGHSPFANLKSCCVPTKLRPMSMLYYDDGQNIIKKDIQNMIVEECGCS
myostatin pro-domain pro-domain, sequence (O14793 24-266): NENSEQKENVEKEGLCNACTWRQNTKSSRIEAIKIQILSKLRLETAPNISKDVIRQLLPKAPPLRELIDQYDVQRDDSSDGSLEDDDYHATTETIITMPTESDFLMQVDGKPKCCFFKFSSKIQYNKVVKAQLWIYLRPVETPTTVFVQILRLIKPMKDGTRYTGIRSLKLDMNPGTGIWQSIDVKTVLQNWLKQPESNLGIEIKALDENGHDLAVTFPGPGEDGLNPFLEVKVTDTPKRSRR

Kd [1]: 0.259 nM
Substance: cleaved pro-activin A complex (pro-mature complex) (from UniProt P08476 311-426)

Substance: follistatin (from UniProt P19883)
Kd [2]: 12.3 nM

Substance: follistatin FST-288 (from UniProt P19883)
Kd [3]: 0.0465 nM

Substance: myostatin pro-domain pro-domain (from UniProt O14793)
Kd [4]: 8.3 nM
